Data reported in doi:10.1101/2021.12.03.471045 (bioRxiv, 2021).

Molecular target: early pandemic (Wuhan) SARS-CoV-2 RBD (SARS-CoV-2, UniProt P0DTC2)
Experiment: crystal structure
Settings: both partners purified

B1: mAb 158 Fab (Fab, V domains shown)
VH: EVQLLESGGDLIQPGGSLRLSCAASGVTVSSNYMSWVRQAPGKGLEWVSIIYPGGSTFYADSVKGRFTISRDNSKNTLYLQMHSLRAEDTAVYYCARDLGSGDMDVWGKGTTVTVSS
VL: DIVMTQSPSFLSASVGDRVTITCRASQGISSYLAWYQQKPGKAPKLLIQAASTLQSGVPSRFSGSGSGTEFTLTISSLQPEDFATYYCQQLNSYRYTFGQGTKVEIK
binding result: binds

B2: mAb 58 Fab (Fab, V domains shown)
VH: QVQLVESGGGLVQPGRSLRLSCAASGFTFDDYAMHWVRQPPGKGLEWVSGVSWNSGTIGYADSVKGRFIISRDNAKNSLYLQMNSLKAEDTALYYCAREVGGTFGVLISREGGLDYWGQGTLVTVSS
VL: SYELTQPPSVSVAPGQTARITCGGNTIGSKSVHWYQQRPGQAPVLVVYDDSDRPSGIPERFSGSNSGNTATLTISRVEAGDEADYYCQVWDSSSDRVVFGGGTKLTVL
binding result: binds
